{"source": "patent US20160030544A1", "about": "(published 2016)", "binders": {"B1": {"name": "fH6-7 (other)", "chain": "TLKPCDYPDIKHGGLYHENMRRPYFPVAVGKYYSYYCDEHFETPSGSYWDHIHCTQDGWSPAVPCLRKCYFPYLENGYNQNYGRKFVQGKSIDVACHPGYALPKAQTTVTCMENGWSPTPRCI"}}, "target": "fHbp v2.22 WT", "test": "SPR"}
{"binder": "B1", "values": [{"measurement": "Kd", "result": 0.3, "unit": "nM"}]}
